Experiments:
GAC-F4-ZIF [1] = molecular target: GAC-F4-ZIF (artificial); experiment: EMSA; optimal 9 bp gap; settings: label: 32P
Experimental: (§1) DNA binding reactions contain the appropriate zinc-finger peptide, binding site and 1 μg competitor DNA (poly dI-dC) in a total volume of 10 μl, which contains: 20 mM Bis-tris propane (pH 7.0), 100 mM NaCl, 5 mM MgCl₂, 50 μM ZnCl₂, 5 mM DTT, 0.1 mg/ml BSA, 0.1% Nonidet P40. Incubations are performed at room temperature for 1 hour.
(§2) To determine whether TFIIIA F4 would still function as a linker when taken out of the context of neighbouring TFIIIA fingers, the GAC-F4-ZIF construct is made (FIGS. 14 and 16). This construct can be thought of simply as two ZIF-based DNA binding domains joined by a structured linker (in this case TFIIIA F4). […] In this case, however, the optimal DNA span is found to be 8 or 9 bps, although 7-11 bp stretches could be spanned without a significant loss in binding affinity.

GAC-F4-ZIF [2] = molecular target: GAC-F4-ZIF (artificial); experiment: EMSA; 10 bp gap spanned without significant loss; settings: label: 32P
GAC-F4-ZIF [3] = molecular target: GAC-F4-ZIF (artificial); experiment: EMSA; 7 bp gap spanned without significant loss; settings: label: 32P
GAC-F4-ZIF [4] = molecular target: GAC-F4-ZIF (artificial); experiment: EMSA; 11 bp gap spanned without significant loss; settings: label: 32P
GAC-F4-ZIF [5] = molecular target: GAC-F4-ZIF (artificial); experiment: EMSA; optimal 8 bp gap; settings: label: 32P
Experimental: as §1, §2

[6] = molecular target: ZIF-ZnF-GAC (serine-finger linker) (artificial); experiment: EMSA; apparent Kd; settings: label: 32P
ZIF-ZnF-GAC (serine-finger linker) (artificial), sequence (chain, as listed by the source): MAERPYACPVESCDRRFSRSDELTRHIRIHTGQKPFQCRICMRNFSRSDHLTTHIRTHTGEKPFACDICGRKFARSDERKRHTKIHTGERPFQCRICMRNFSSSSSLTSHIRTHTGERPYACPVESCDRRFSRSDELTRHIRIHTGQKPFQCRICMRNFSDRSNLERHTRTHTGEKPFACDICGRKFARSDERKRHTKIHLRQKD
Experimental: as §1
(§3) Dissociation constants are determined in parallel to the calculation of active peptide concentration. Serial 3, 4 or 5-fold dilutions of crude peptide are made and incubated with radiolabelled binding site (0.1 pM-500 pM depending on the peptide), as above. Samples are run on 7% native polyacrylamide gels and the radioactive signals quantitated by PhosphorImager analysis. The data is then analysed according to linear transformation of the binding equation and plotted in CA-Cricket Graph III (Computer Associates Inc. NY) to generate the apparent dissociation constants. The Kd values reported are the average of at least two separate studies.
A further set of binding studies is then carried out on the construct containing the non-specific zinc finger linker, ZIF-ZnF-GAC. Although this construct is expected to target (primarily) non-contiguous sequences containing three or four base pairs of non-bound DNA, it is tested against all of the binding sites from ZM to Z10M. […]

2x3F ZIF-GAC = 2x3F ZIF-GAC (artificial); experiment: EMSA; apparent Kd; settings: label: 32P
2x3F ZIF-GAC (artificial), sequence (chain, as listed by the source): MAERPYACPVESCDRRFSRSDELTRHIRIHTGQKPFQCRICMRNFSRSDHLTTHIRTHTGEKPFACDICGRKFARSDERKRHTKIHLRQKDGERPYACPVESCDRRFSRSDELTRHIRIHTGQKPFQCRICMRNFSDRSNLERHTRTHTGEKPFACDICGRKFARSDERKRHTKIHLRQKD
Experimental: as §1, §3

3x2F ZGXL = 3x2F ZGXL (artificial); experiment: EMSA; settings: label: 32P
3x2F ZGXL (artificial), sequence (chain, as listed by the source): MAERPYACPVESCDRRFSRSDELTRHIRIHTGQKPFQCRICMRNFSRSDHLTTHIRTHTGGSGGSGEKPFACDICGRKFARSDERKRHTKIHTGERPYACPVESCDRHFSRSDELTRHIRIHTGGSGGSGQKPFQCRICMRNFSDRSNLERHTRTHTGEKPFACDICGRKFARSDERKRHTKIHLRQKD
Experimental: as §1
3x2F ZGXL binds the non-contiguous site bsD approximately as tightly as the 3x2F ZGS peptide binds the contiguous 18 bp site, bsC. However, the 3x2F ZGXL peptide binds bsE (containing 2 base pair gaps between target subsites) approximately 500-fold less tightly than it does bsC and bsD, as shown in FIG. 11. This is presumably because it can only bind bsE through 2 fingers.

3x2F pep11-9 = 3x2F pep11-9 (artificial); experiment: in vitro fluorescence ELISA, values in figure only; settings: label: biotin
3x2F pep11-9 (artificial), sequence (chain, as listed by the source): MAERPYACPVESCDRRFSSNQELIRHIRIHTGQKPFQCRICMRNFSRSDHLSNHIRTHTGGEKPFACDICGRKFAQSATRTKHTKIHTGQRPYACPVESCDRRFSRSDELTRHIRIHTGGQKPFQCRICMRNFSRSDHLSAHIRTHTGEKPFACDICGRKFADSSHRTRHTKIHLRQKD
Experimental: (§4) Incubations are performed at room temperature for 40 minutes. Black streptavidin-coated wells are blocked with 4% marvel for 1 hour. Binding reactions are added to the streptavidin-coated wells and incubated for a further 40 minutes at room temperature. Wells are washed 5 times in 100 μl wash buffer (1×PBS (pH 7.0), […] ZnCl₂, 0.01 mg/ml BSA, and 0.5% Tween 20), and finally 50 μl QuantaBlu peroxidase substrate solution (Pierce) is added to detect bound HA-tagged zinc finger peptide. ELISA signals are read in a SPECTRAmax GeminiXS spectrophotometer (Molecular Devices) and analysed using SOFTmax Pro 3.1.2 (Molecular Devices).
(§5) To compare the specificity of the 2x3F pep11-9 and 3x2F pep11-9 peptides, samples from the same translation reaction are assayed against each of the binding sites above. The ELISA signals obtained from each assay are then normalised relative to the maximum signal obtained for that peptide. (In this way the absolute amount of either peptide produced by the in vitro transcription/translation system is insignificant).

2x3F pep11-9 = 2x3F pep11-9 (artificial); experiment: in vitro fluorescence ELISA, values in figure only; settings: label: biotin
2x3F pep11-9 (artificial), sequence (chain, as listed by the source): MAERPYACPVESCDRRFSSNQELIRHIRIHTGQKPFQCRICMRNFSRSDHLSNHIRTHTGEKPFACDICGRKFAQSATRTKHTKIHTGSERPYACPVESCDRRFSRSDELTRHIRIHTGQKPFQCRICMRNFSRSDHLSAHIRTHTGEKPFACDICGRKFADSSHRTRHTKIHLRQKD
Experimental: as §4, §5

GAC-F4-ZIF (artificial), sequence (chain, as listed by the source): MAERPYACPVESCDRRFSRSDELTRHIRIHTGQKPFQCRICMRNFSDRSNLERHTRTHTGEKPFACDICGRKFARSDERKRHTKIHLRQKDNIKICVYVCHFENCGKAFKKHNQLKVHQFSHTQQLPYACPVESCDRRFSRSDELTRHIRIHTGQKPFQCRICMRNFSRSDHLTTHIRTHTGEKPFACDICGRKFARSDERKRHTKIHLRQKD

B1: bsD2 (dsDNA)
DNA 1: GCGTGGGCGTAGTACCTGGCGGACGCG
DNA 2: CGCGTCCGCCAGGTACTACGCCCACGC
binding signal (GAC-F4-ZIF [1]): ≥ 125 fold stronger than bsA

B2: bsE2 (dsDNA)
DNA 1: GCGTGGGCGTTAGTACCTGGCGGACGCG
DNA 2: CGCGTCCGCCAGGTACTAACGCCCACGC
binding result (GAC-F4-ZIF [2]): binds

B3: bsB2 (dsDNA)
DNA 1: GCGTGGGCGGTACCTGGCGGACGCG
DNA 2: CGCGTCCGCCAGGTACCGCCCACGC
binding result (GAC-F4-ZIF [3]): binds

B4: bsF2 (dsDNA)
DNA 1: GCGTGGGCGGTTAGTACCTGGCGGACGCG
DNA 2: CGCGTCCGCCAGGTACTAACCGCCCACGC
binding result (GAC-F4-ZIF [4]): binds

B5: bsC2 (dsDNA)
DNA 1: GCGTGGGCGAGTACCTGGCGGACGCG
DNA 2: CGCGTCCGCCAGGTACTCGCCCACGC
binding signal (GAC-F4-ZIF [5]): ≥ 125 fold stronger than bsA

B6: bsC (123456, ZM) (dsDNA)
DNA 1: GCGGACGCGGCGTGGGCG
DNA 2: CGCCCACGCCGCGTCCGC
Kd [6]: 7 pM | Kd (2x3F ZIF-GAC): 1.4 pM | binding result (3x2F ZGXL): binds

B7: 11-9 (dsDNA)
DNA 1: GGCCAGGCGGCAGGGGTT
DNA 2: AACCCCTGCCGCCTGGCC
binding result (3x2F pep11-9): binds | binding result (2x3F pep11-9): binds
